Measurements reported in patent US20240083959A1 (published 2024).
Blank lines part the entries; values can stand above or below the binder they belong to.

Key:
[1] = biological target: T1, recombinant human LPHN2 lectin-olfactomedin-like domain, residues F26-P394 (human, UniProt O95490 26-394); experiment: solid-phase binding (ELISA)
T1 chain: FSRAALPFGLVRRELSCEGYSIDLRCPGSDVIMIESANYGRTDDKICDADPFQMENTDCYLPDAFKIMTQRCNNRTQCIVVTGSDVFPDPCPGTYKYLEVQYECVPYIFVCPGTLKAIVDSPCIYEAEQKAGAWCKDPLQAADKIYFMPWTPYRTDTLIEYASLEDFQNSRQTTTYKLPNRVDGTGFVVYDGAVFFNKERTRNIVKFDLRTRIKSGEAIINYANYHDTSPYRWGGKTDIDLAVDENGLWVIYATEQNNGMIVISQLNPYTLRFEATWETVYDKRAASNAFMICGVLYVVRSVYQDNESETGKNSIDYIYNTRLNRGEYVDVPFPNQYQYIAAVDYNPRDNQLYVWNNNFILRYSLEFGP

[2] = biological target: LPHN2 Lec; experiment: solid-phase binding (ELISA)

Kd [1]: 430 nM
B1: deglycosylated LRG1 (LRG1 treated with PNGase F) (ligand)
chain: VTLSPKDCQVFRSDHGSSISCQPPAEIPGYLPADTVHLAVEFFNLTHLPANLLQGASKLQELHLSSNGLESLSPEFLRPVPQLRVLDLTRNALTGLPPGLFQASATLDTLVLKENQLEVLEVSWLHGLKALGHLDLSGNRLRKLPPGLLANFTLLRTLDLGENQLETLPPDLLRGPLQLERLHLEGNKLQVLGKDLLLPQPDLRYLFLNGNKLARVAAGAFQGLRQLDMLDLSNNSLASVPEGLWASLGQPNWDMRDGFDISGNPWICDQNLSDLYRWLQAQKDKMFSQNDTRCAGPEAVKGQTLLAVAKSQ
modifications: N-linked glycans removed with PNGase F (sites N79, N186, N269, N325 on SEQ ID NO: 1)

Kd [1]: 890 nM
B2: recombinant human LRG1 (leucine-rich alpha-2 glycoprotein 1), residues V36-Q347, untagged, glycosylated (ligand)
chain: B1 chain
modifications: glycosyl groups at T37 (O-linked), N79, N186, N269 and N325 (N-linked), numbered on SEQ ID NO: 1

Kd [2]: 1100 nM
B3: DG-LRG1 (ligand)
chain: B1 chain
modifications: N-linked glycans removed with PNGase F (sites N79, N186, N269, N325 on SEQ ID NO: 1)
